The target in data set [1] is Max b/HLH/Z domain (amino acids 22-113) (UniProt P61244). Nature of the data set: fluorescence polarisation. A general note: Polarisation of emitted light reports the rotation of a fluorescent probe.
For data set [2] the target is unchanged. Nature of the data set: fluorescence polarisation. The source holds these as a separate data set.
The target is the same in data set [3]. The experiment in a line: fluorescence polarisation. This is another data set of the same source.
For data set [4] the target is unchanged. The experiment in a line: fluorescence polarisation. This is another data set of the same source.
Data set [5] has as its target T1, Mad1;Max b/HLH/Z (;, UniProt Q05195;P61244 1-221;22-113, |). The experiment in a line: stopped-flow fluorescence anisotropy.
In data set [6] the target is T2, c-Myc b/HLH/Z;Max b/HLH/Z (;, UniProt P01106-1;P61244 347-439;22-113, |). The experiment in a line: stopped-flow fluorescence anisotropy.
Data set [7] addresses T3, Max b/HLH/Z (UniProt P61244 22-113). Nature of the data set: stopped-flow fluorescence anisotropy.
Data set [8] deals with Max b/HLH/Z monomer (UniProt P61244 22-113). The experiment in a line: stopped-flow fluorescence anisotropy.
The target of data set [9] is T3, Max b/HLH/Z. The experiment in a line: stopped-flow fluorescence anisotropy. This is another data set of the same source.
For data set [10], the target named is T1, Mad1;Max b/HLH/Z. The experiment in a line: stopped-flow fluorescence anisotropy. The source holds these as a separate data set.
In data set [11] the target is T2, c-Myc b/HLH/Z;Max b/HLH/Z. Nature of the data set: stopped-flow fluorescence anisotropy. This is another data set of the same source.

Like-named read-outs stand apart in the source and are kept apart here.

Max b/HLH/Z domain (amino acids 22-113), sequence (P61244 22-113): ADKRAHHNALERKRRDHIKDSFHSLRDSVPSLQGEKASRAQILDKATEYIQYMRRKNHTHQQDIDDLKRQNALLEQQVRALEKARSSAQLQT
T1 sequence (Q05195 whole entry, chain 1 of 2): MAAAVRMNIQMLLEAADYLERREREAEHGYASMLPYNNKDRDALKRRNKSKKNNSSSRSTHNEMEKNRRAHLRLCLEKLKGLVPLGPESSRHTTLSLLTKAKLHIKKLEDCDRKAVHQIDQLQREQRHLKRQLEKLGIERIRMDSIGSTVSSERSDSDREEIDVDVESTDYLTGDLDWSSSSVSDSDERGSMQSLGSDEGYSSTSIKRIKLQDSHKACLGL
T1 sequence (P61244 22-113, chain 2 of 2): as the sequence (P61244 22-113) above
T2 sequence (P01106 362-454, chain 1 of 2): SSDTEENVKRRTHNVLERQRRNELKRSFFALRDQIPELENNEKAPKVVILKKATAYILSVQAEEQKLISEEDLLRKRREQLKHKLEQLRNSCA
T2 sequence (P61244 22-113, chain 2 of 2): as the sequence (P61244 22-113) above
T3 sequence (P61244 22-113): as above
Max b/HLH/Z monomer, sequence (P61244 22-113): as above

Regarding “c-Myc b/HLH/Z domain (amino acids 347-439) (domain or fragment)”, the kobs (association rate constant) in data set [1] is 90 s⁻¹; in [2], 67 s⁻¹; in data set [3] it was 118 s⁻¹; in [4], 109 s⁻¹. In addition, the association rate constant with the Max·DNA complex in [3] was 126 s⁻¹. The molecule also came in with a k2 (forward rate constant of the second step, from the intercept) in data set [3] of 91 s⁻¹.

B1: MLP E-box 16-mer, FITC-labelled (dsDNA)
DNA 1: TAGGCCACGTGACCGG
DNA 2: CCGGTCACGTGGCCTA
For the molecule B1, the binding result in data set [5], in [6] and in [7] was “binds” each time.

B2: MLP E-box 16-mer, label not stated (dsDNA)
DNA 1: TAGGCCACGTGACCGG
DNA 2: CCGGTCACGTGGCCTA
As for B2, the binding result in data set [8], in [9], in data set [10] and in [11] was “binds” throughout.

The values above are taken from publication PMC2852888.
